Test results from patent US20140235820A1, “METHODS AND COMPOSITIONS FOR MODULATING THE Wnt PATHWAY” (Genentech, Inc., priority 2010, published 2014).

Key:
[1] = target: T1, Wnt3a binding to LRP6 E1E4 (Homo sapiens, UniProt O75581); assay: Wnt3a binding to LRP6 E1E4 in presence of inhibitor; conditions: inhibitor 125 nM, Wnt 125 nM
T1 construct: construct E1E4-amino acids A20-Q1253 of LPR6; made in house; host or cells: Tni insect cells (baculovirus, secreted)
T1 sequence (O75581 20-1253): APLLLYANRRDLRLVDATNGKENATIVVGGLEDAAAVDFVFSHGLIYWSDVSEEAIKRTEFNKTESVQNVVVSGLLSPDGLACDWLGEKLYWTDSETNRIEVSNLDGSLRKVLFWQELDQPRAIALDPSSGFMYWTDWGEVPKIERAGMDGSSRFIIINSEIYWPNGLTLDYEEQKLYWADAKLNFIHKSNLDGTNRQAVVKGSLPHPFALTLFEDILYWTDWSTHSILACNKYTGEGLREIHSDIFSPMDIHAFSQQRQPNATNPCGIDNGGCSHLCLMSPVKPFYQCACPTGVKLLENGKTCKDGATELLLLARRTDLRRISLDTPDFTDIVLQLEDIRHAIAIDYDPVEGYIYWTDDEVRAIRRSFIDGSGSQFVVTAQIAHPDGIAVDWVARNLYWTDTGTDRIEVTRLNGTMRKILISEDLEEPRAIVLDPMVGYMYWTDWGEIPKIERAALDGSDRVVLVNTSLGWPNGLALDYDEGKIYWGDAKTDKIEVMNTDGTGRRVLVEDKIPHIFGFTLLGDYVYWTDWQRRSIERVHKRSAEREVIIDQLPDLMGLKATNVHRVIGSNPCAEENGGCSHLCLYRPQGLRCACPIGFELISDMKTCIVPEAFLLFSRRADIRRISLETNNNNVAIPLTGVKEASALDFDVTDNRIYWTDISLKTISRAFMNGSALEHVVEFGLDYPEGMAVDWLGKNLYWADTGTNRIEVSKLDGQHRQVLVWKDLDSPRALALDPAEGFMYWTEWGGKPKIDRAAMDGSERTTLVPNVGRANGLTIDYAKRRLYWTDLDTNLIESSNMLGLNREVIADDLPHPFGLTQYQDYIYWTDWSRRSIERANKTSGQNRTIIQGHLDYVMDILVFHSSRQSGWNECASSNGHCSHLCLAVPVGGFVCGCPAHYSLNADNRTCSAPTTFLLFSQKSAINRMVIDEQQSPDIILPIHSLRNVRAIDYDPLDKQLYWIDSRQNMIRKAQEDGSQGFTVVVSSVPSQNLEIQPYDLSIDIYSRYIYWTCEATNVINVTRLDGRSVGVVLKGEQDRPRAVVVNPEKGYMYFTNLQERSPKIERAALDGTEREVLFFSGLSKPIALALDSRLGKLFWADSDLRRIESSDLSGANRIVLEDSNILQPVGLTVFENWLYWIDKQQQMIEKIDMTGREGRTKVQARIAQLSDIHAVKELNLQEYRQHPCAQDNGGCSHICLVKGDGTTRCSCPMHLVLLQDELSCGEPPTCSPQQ
Procedure: (§1) FIG. 11. Wnt binding to LRP6 E1E4 in the presence or absence of Dkk1 or sclerostin.
(§2) Binding kinetics were measured by biolayer interferometry using an Octet Red instrument (ForteBio) as previously described (11). Streptavidin (SA) biosensors were loaded with biotinylated hLRP6 in 50 mMTris, pH 8, 300 mM NaCl, 5% (v/v) glycerol, and 0.05% (w/v) Triton X-100. The loaded biosensors were washed in the same buffer before carrying out association and dissociation measurements for the indicated times. The Kd of each interaction was determined using steady state-analysis through the Octet Red software v6.3. Each reported value represents an average of three or more experiments at different concentrations, with a fitted experimental curve for which the square of the correlation coefficient (R^2) is above 0.96.
(§3) Wnt9b also binds to the E1E2 region but not to the E3E4 region (11). Accordingly, sclerostin inhibits Wnt9b binding to LRP6 E1E4 (FIG. 11). […] Accordingly, Dkk1 inhibits the binding of both Wnt3a and Wnt9b to LRP6 E1E4 (FIG. 11).

[2] = target: T2, Wnt9b binding to LRP6 E1E4 (Homo sapiens, UniProt O75581); assay: Wnt9b binding to LRP6 E1E4 in presence of inhibitor; conditions: inhibitor 125 nM, Wnt 125 nM
T2 construct: construct E1E4-amino acids A20-Q1253 of LPR6; made in house; host or cells: Tni insect cells (baculovirus, secreted)
T2 sequence (O75581 20-1253): T1 sequence (O75581 20-1253)
Procedure: as §1, §2, §3

[3] = target: T3, LRP6 E2 (Homo sapiens, UniProt O75581); assay: Biolayer interferometry binding to LRP6 E2
T3 construct: construct E2-amino acids D235-E631 of LPR6; made in house; host or cells: Tni insect cells (baculovirus, secreted)
T3 sequence (O75581 325-631 limits assumed): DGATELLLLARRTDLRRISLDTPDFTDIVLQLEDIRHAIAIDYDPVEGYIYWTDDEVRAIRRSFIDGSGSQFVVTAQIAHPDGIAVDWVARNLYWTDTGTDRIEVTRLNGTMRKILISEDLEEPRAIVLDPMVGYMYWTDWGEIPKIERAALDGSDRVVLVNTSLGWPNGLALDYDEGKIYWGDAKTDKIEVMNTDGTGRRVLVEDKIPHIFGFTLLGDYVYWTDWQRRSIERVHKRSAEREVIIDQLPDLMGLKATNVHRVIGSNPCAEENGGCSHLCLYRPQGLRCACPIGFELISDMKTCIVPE
Procedure: as §2
The interaction of the different Dkks and sclerostin with various domains of LRP6 was measured using a biolayer interferometry assay (11). Purified receptors contained individual β-propeller-EGF-like units (E1, E2, or E4), two β-propellers (E1E2 or E3E4), or four β-propellers (E1E4))—as follows:
Human LRP6: construct E1E4-amino acids A20-Q1253 of LPR6; construct E1E2-amino acids A20-E631 of LPR6; construct E3E4 amino acids E631-Q1253 of LPR6; construct E1-amino acids A20-D325 of LPR6; construct E2-amino acids […]-E631 of LPR6; construct E4-T933-Q1253. The individual LRP6 β-propeller E3 could not be expressed.

inhibition of Wnt3a binding to LRP6 E1E4 [1] | inhibition of Wnt9b binding to LRP6 E1E4 [2] | binding to LRP6 E2 (in words) [3] | Substance
unable to inhibit | inhibits | very weak or non-specific binding | sclerostin: Sclerostin protein, Wnt pathway inhibitor, expressed in insect cells (LPNAIGR)
inhibits | inhibits | Partial binding | Dkk1: Dickkopf 1 protein, Wnt pathway inhibitor, expressed in insect cells (NSNAIKN)
